This is an account of results in publication PMC5216073.

Assay [1] has as its target CtYpt7-K38A (Chaetomium thermophilum).
In assay [2] the target is CtYpt7 wild type (Chaetomium thermophilum Ypt7) (Chaetomium thermophilum).
In assay [3] the target is CtYpt7-F33A (Chaetomium thermophilum).

In the case of “CtMC1core complex (CtMon1 195-355 with CtCcz1 1-249), both expression tags retained, as used in the GEF assay”, the kcat/KM of MC1-stimulated nucleotide exchange (fluorescence GEF assay, rates against CtMC1core concentration) in assay [1] was determined as 2600 M⁻¹ s⁻¹; in assay [3], 35000 M⁻¹ s⁻¹. Further, in assay [2], the kcat/KM of MC1-stimulated exchange of MANT-GDP for GTP on Ypt7 (fluorescence GEF assay, 0-2.0 μM CtMC1core, 25 °C) is 23000 M⁻¹ s⁻¹.
